Results on two molecules are retold here after article PMC5996148, “Data set on G4 DNA interactions with human proteins”.

The target of data set [1] is T1, bromodomain containing 3 (human, UniProt Q15059-2 1-556). The experiment in a line: protein microarray; 2.5 uM ON; 6.47 at 25 uM; Microarray: 20 mM Tris pH 7.5, 5 mM MgCl2, 100 mM KCl, 0.1% Tween-20, A/T-rich ON blocker mix; EMSA: 20 mM Tris-HCl pH 8, 100 mM KCl, 200 nM ON, 0-200 nM BRD3. The settings on record: protein: commercial; label: biotin; G4; mixed topology for unmodified strand, CD differs when biotinylated. For orientation: In EMSA bound probe runs differently from free probe, usually more slowly.
T1 sequence (Q15059 other isoform, or with tags, fused parts or gaps): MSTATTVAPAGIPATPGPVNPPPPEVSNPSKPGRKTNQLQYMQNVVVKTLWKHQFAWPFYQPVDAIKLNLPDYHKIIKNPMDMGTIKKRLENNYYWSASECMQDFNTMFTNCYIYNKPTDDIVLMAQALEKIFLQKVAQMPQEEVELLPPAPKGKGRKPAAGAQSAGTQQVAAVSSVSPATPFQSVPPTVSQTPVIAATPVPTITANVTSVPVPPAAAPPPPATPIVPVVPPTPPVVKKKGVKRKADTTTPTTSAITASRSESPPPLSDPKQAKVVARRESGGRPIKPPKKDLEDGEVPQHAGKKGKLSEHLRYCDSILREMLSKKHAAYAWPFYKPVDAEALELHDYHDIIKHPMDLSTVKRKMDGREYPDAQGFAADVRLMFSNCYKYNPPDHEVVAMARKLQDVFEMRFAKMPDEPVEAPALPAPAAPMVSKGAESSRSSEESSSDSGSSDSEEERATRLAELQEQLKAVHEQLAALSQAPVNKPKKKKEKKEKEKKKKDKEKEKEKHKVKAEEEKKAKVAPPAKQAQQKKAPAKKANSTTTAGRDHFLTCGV

Data set [2] addresses T2, additional sex combs like 1 (human, UniProt Q6P1M8 1-84).
T2 sequence: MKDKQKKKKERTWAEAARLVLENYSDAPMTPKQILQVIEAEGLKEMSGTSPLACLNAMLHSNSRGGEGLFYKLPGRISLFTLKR
The description is as above. The conditions noted are these: protein: commercial; label: biotin; G4; mixed topology for unmodified strand, CD differs when biotinylated.

Data set [3] addresses T3, GABA(A) receptor-associated protein (human, UniProt O95166 1-117). The data set is described as above. The settings on record: protein: commercial; label: biotin; G4; mixed topology for unmodified strand, CD differs when biotinylated.
Data set [4] concerns the target T4, chromosome 1 open reading frame 63 (human, UniProt Q9BUV0 1-290).
T4 sequence: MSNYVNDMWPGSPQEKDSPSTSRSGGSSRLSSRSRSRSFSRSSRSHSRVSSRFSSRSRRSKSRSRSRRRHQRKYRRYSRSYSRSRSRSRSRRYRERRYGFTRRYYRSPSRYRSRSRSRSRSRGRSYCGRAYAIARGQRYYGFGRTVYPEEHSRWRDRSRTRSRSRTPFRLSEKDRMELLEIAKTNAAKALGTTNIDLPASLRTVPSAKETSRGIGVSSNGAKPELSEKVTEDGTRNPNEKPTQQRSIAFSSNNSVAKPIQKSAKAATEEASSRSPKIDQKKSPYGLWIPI
Described as above. The settings on record: protein: commercial; label: biotin; G4; mixed topology for unmodified strand, CD differs when biotinylated.

For data set [5], the target named is T5, hypothetical protein HSPC111 (human, UniProt Q9Y3C1 1-178).
T5 sequence: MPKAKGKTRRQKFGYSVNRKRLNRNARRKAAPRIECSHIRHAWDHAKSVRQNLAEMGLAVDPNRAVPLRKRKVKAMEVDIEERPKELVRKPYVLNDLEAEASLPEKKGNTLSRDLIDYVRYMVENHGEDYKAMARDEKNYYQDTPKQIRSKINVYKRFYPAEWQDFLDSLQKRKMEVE
The experiment in a line: protein microarray; 2.5 uM ON; 4.85 at 25 uM; Microarray: 20 mM Tris pH 7.5, 5 mM MgCl2, 100 mM KCl, 0.1% Tween-20, A/T-rich ON blocker mix; EMSA: 20 mM Tris-HCl pH 8, 100 mM KCl, 200 nM ON, 0-200 nM BRD3. The settings on record: protein: commercial; label: biotin; intramolecular parallel G4.

In data set [6] the target is T1, bromodomain containing 3. The description is as above. The settings on record: protein: commercial; label: biotin; intramolecular parallel G4.
For data set [7], the target named is Coiled-coil domain-containing protein 28A (human, UniProt Q8IWP9 1-274). The data set is described as above. The settings on record: protein: commercial; label: biotin; intramolecular parallel G4.
Chain of Coiled-coil domain-containing protein 28A (Q8IWP9 whole entry, the tested form may be a part): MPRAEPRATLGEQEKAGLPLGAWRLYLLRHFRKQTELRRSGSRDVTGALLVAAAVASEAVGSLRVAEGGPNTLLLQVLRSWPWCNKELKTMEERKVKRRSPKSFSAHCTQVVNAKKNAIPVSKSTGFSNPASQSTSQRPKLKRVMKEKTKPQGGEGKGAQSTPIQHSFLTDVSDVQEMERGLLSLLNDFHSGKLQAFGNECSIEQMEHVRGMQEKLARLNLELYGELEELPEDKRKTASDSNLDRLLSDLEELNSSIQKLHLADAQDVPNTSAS
Data set [8] deals with T6, Peptidyl-tRNA hydrolase 2, mitochondrial (human, UniProt Q9Y3E5 1-179).
T6 sequence: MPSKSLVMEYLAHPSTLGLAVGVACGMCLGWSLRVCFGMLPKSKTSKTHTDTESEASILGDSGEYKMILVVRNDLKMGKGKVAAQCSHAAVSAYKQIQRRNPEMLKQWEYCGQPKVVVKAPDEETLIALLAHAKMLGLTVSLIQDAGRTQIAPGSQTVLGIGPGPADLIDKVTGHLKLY
The description is as above. The conditions noted are these: protein: commercial; label: biotin; intramolecular parallel G4.

The target in data set [9] is peptidyl arginine deiminase, type IV (human, UniProt Q9UM07 1-663). The data set is described as above. The conditions noted are these: protein: commercial; label: biotin; intramolecular parallel G4.
Chain of peptidyl arginine deiminase, type IV (Q9UM07 whole entry): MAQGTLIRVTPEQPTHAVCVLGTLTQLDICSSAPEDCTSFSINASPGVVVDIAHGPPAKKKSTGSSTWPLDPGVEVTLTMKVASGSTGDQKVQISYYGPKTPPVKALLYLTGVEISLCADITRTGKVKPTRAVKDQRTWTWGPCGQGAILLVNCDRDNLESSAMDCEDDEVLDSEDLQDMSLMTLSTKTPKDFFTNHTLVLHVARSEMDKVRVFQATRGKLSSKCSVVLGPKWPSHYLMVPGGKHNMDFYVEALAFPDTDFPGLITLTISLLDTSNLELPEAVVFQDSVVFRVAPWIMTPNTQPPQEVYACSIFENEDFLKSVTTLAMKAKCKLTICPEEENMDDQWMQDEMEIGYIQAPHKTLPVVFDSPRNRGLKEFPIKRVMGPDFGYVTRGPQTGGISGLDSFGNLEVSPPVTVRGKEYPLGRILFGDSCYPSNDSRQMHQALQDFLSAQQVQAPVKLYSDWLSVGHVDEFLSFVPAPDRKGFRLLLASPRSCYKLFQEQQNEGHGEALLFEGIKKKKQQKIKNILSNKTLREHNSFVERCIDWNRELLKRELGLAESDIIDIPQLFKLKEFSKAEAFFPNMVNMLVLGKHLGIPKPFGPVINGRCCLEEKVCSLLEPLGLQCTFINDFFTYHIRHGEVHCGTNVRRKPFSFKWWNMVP
Data set [10] has as its target Cyclin-dependent kinase-like 3 (human, UniProt Q8IVW4-2 1-455). The experiment in a line: protein microarray; 2.5 uM ON; 4.86 at 25 uM; Microarray: 20 mM Tris pH 7.5, 5 mM MgCl2, 100 mM KCl, 0.1% Tween-20, A/T-rich ON blocker mix; EMSA: 20 mM Tris-HCl pH 8, 100 mM KCl, 200 nM ON, 0-200 nM BRD3. The conditions noted are these: protein: commercial; label: biotin; intramolecular parallel G4.

Data set [11] addresses T2, additional sex combs like 1. The data set is described as above. The conditions noted are these: protein: commercial; label: biotin; intramolecular parallel G4.
The target of data set [12] is T3, GABA(A) receptor-associated protein. Described as above. The settings on record: protein: commercial; label: biotin; intramolecular parallel G4.
In data set [13] the target is T4, chromosome 1 open reading frame 63. The data set is described as above. The settings on record: protein: commercial; label: biotin; intramolecular parallel G4.
Data set [14] concerns the target T7, ankyrin repeat and zinc finger domain containing 1 (human, UniProt Q9H8Y5 1-726).
T7 sequence: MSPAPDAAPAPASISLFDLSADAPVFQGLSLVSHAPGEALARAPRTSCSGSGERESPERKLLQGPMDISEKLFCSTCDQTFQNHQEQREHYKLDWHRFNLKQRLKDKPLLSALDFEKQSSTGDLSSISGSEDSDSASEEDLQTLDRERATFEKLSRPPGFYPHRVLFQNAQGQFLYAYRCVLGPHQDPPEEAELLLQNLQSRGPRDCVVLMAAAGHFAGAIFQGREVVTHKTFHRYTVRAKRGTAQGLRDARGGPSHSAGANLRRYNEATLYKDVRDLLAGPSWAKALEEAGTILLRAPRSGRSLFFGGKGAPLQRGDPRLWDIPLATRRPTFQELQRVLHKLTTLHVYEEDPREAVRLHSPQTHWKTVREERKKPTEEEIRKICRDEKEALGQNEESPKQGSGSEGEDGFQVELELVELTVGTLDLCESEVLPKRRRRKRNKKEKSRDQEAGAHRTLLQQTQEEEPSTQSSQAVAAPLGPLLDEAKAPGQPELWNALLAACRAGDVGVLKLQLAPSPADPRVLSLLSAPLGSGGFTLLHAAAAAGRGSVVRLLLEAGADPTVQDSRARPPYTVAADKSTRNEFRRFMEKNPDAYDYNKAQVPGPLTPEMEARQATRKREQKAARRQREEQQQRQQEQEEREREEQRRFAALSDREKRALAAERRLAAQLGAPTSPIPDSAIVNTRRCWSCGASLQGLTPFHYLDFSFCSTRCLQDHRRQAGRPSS
The data set is described as above. The settings on record: protein: commercial; label: biotin; intramolecular parallel G4.

Data set [15] has as its target T8, LOC153684 protein (FLJ42001 fis, clone SPLEN2029912) (human, UniProt Q6ZVW3 1-145).
T8 sequence: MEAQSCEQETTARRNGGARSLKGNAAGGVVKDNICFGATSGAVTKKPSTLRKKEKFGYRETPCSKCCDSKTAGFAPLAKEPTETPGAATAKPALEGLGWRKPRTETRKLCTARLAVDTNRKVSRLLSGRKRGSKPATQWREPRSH
Described as above. The settings on record: protein: commercial; label: biotin; intramolecular parallel G4.

Data set [16] has as its target T9, survival motor neuron domain containing 1 (human, UniProt O75940 1-238).
T9 sequence: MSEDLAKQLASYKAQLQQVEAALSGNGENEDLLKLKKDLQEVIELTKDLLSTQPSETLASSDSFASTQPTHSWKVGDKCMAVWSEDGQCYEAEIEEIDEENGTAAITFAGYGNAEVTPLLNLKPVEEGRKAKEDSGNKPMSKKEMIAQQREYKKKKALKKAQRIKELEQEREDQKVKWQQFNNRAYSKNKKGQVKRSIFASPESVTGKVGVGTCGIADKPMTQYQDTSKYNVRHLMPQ
The description is as above. The conditions noted are these: protein: commercial; label: biotin; intramolecular parallel G4.

For data set [17], the target named is actin related protein 2/3 complex, subunit 1B, 41 kDa (human, UniProt O15143 1-372). The description is as above. The conditions noted are these: protein: commercial; label: biotin; intramolecular parallel G4.
Data set [18] has as its target peripheral myelin protein 2 (human, UniProt P02689 1-132). The description is as above. The conditions noted are these: protein: commercial; label: biotin; intramolecular parallel G4.

T3 sequence (O95166 whole entry): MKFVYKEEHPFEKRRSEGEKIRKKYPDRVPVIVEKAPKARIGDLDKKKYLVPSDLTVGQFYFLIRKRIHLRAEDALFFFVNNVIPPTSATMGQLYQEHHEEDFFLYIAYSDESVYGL
Chain of peripheral myelin protein 2 (P02689 whole entry): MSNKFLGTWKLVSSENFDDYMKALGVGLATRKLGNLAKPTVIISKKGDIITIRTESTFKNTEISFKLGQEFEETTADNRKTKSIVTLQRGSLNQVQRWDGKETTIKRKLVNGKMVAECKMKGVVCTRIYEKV
Chain of Cyclin-dependent kinase-like 3 (Q8IVW4 1-455): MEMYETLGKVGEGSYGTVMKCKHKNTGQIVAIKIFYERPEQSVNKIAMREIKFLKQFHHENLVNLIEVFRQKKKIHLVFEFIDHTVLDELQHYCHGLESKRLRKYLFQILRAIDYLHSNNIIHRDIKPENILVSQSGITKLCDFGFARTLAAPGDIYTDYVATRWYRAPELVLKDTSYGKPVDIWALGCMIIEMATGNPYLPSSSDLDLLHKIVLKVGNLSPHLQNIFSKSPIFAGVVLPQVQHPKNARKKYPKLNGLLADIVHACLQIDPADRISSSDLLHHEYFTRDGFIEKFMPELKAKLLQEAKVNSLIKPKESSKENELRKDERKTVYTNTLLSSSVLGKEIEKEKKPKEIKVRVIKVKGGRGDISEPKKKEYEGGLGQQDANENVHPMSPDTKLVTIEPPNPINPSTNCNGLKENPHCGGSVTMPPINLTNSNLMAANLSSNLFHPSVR

On to GGGGACAGGGGTATGGGGAGGGG (structured_DNA, 3'-biotin) [G4-3 biotinylated (CtG)], for which the binding signal with bromodomain containing 3 [1] stood at 4.51 Z-score; in data set [2] it was 9.22 Z-score; in data set [3], 7.02 Z-score; in data set [4], 5.93 Z-score.
For GGTGACAGGGGTATGGGGAGGGG (structured_DNA, 3'-biotin) [G4-2 biotinylated (Ct1)], the binding signal worked out at 6.78 Z-score in data set [5]; 6.79 Z-score with bromodomain containing 3 [6]; 6.78 Z-score in data set [7]; 3.46 Z-score in data set [8]; 6.78 Z-score in data set [9]; 6.29 Z-score in data set [10]. Besides, the binding signal is 6.79 Z-score in data set [11]; 6.62 Z-score in data set [12]; 6.17 Z-score in data set [13]; 6.68 Z-score in data set [14]; 6.45 Z-score in data set [15]; 6.4 Z-score in [16]. The binding signal in data set [17] came to 6.19 Z-score; in [18], 6.73 Z-score.
